Measurements from the Immune Epitope Database (IEDB).

Legend:
HLA-A*24:02 [1] = assay: IEDB peptide-MHC binding, purified MHC/competitive/fluorescence; ≥ and ≤ were set here for values at or beyond the usual limits of such assays
HLA-A*02:01 = assay: as above
HLA-A*30:02 = assay: IEDB peptide-MHC binding, purified MHC/competitive/radioactivity; filed as Kd, often an IC50 or EC50 that approximates it; ≥ and ≤ were set here for values at or beyond the usual limits of such assays
HLA-B*15:01 = assay: as above
HLA-B*58:01 [2] = assay: as above
HLA-B*57:01 [3] = assay: as above
HLA-A*32:01 = assay: as above
HLA-A*11:01 = assay: as above; settings: source organism: Dengue virus 3 Martinique/1243/1999
HLA-B*58:01 [4] = assay: IEDB peptide-MHC binding, purified MHC/direct/fluorescence; filed as Kd, often an IC50 or EC50 that approximates it; ≥ and ≤ were set here for values at or beyond the usual limits of such assays
HLA-B*57:01 [5] = assay: as above
HLA-B*15:17 = assay: as above
HLA-B*27:05 = assay: as above
HLA-B*48:01 = assay: as above
HLA-A*24:02 [6] = assay: IEDB peptide-MHC binding, purified MHC/competitive/radioactivity; filed as Kd, often an IC50 or EC50 that approximates it; ≥ and ≤ were set here for values at or beyond the usual limits of such assays; settings: source organism: Dengue virus 1 Brazil/97-11/1997
HLA-A*23:01 = assay: as above; settings: source organism: Dengue virus 1 Brazil/97-11/1997
HLA-B*53:01 = assay: as above
HLA-A*01:01 = assay: as above; settings: source organism: Dengue virus 3 Martinique/1243/1999
HLA-B*35:01 = assay: as above; settings: source organism: Dengue virus 2 Jamaica/1409/1983
HLA-B*07:02 = assay: as above; settings: source organism: Dengue virus 2 Jamaica/1409/1983
HLA-A*68:02 = assay: as above; settings: source organism: Dengue virus 2 Jamaica/1409/1983
[7] = source organism: Sudan ebolavirus
[8] = source organism: Zaire ebolavirus
[9] = source organism: Dengue virus 1 Brazil/97-11/1997
[10] = source organism: Vaccinia virus WR
[11] = source organism: Dengue virus 2 Jamaica/1409/1983
[12] = source organism: Dengue virus 4 Philippines/H241/1956
[13] = source organism: Dengue virus 3 Martinique/1243/1999
[14] = source organism: Entamoeba histolytica HM-1:IMSS
[15] = source organism: Lassa virus Josiah
[16] = source organism: Mammarenavirus lassaense
[17] = source organism: Dengue virus 4 Dominica/814669/1981
[18] = source organism: Burkholderia mallei
[19] = source organism: Marburg virus - Musoke, Kenya, 1980
[20] = source organism: Vibrio parahaemolyticus

AFSMPLGVV
IC50 (HLA-A*24:02 [1]; [7]): 2820 nM | IC50 (HLA-A*02:01; [7]): 8990 nM

ANAGQFLSF
IC50 (HLA-A*24:02 [1]; [8]): 578 nM

AVLMLVAHY
Kd (HLA-A*30:02; [9]): 2.19 nM | Kd (HLA-B*15:01; [9]): 51.2 nM

FDAVLYYHM
IC50 (HLA-A*24:02 [1]; [8]): 12000 nM | IC50 (HLA-A*02:01; [8]): ≥ 309000 nM

FIIKSSYVF
Kd (HLA-B*15:01; [10]): 3.23 nM

GAAFSGVSW
Kd (HLA-B*58:01 [2]; [11]): 126 nM | Kd (HLA-B*57:01 [3]; [11]): 22.8 nM

GSSKIRWIVE
Kd (HLA-B*57:01 [3]; [12]): 868 nM | Kd (HLA-A*32:01; [12]): 2260 nM

GSSPIIEVKQ
Kd (HLA-B*57:01 [3]; [12]): 17000 nM

GTSADLTVEK
Kd (HLA-A*11:01): 219 nM | Kd (HLA-B*57:01 [3]; [13]): 3510 nM

IQAFEAGVD
IC50 (HLA-A*24:02 [1]; [8]): 32900 nM | IC50 (HLA-A*02:01; [8]): ≥ 210000 nM

ISTLPTEQF
Kd (HLA-B*58:01 [4]; [14]): 2.2 nM | Kd (HLA-B*57:01 [5]; [14]): 238 nM | Kd (HLA-B*15:17; [14]): 6.5 nM

IWMAPSLTE
IC50 (HLA-A*24:02 [1]; [8]): 256 nM

KAIKILTGF
Kd (HLA-B*58:01 [2]; [12]): 22.4 nM | Kd (HLA-B*57:01 [3]; [12]): 66.7 nM

KATREAQKRA
Kd (HLA-B*58:01 [2]; [11]): 10700 nM | Kd (HLA-B*57:01 [3]; [11]): 847 nM

KFRKSSFFV
IC50 (HLA-A*24:02 [1]; [7]): 449 nM | IC50 (HLA-A*02:01; [7]): 7760 nM

KLHSGKDVF
Kd (HLA-B*15:01; [9]): 4.82 nM

KLRQIVAYF
Kd (HLA-B*15:01; [10]): 7.59 nM

KQAKAPESK
Kd (HLA-B*27:05; [15]): 704 nM | Kd (HLA-B*48:01; [15]): ≥ 20000 nM

KRASPILRF
Kd (HLA-B*27:05; [16]): 87 nM | Kd (HLA-B*48:01; [16]): ≥ 20000 nM

LGFMNEDHW
Kd (HLA-B*57:01 [3]; [9]): 26.2 nM

LGKAVHQVF
Kd (HLA-B*15:01; [12]): 477 nM

LMLLPTALAF
Kd (HLA-A*24:02 [6]): 4450 nM | Kd (HLA-A*23:01): 72.9 nM | Kd (HLA-B*15:01; [9]): 0.82 nM | Kd (HLA-B*53:01; [9]): 15600 nM

LSRNSTHEMY
Kd (HLA-A*01:01): 291 nM | Kd (HLA-A*30:02; [13]): 32.2 nM | Kd (HLA-B*15:01; [13]): 48.2 nM

LTSTWVMYGT
Kd (HLA-B*58:01 [2]; [17]): 663 nM | Kd (HLA-B*57:01 [3]; [17]): 2540 nM

MAILGDTAW
Kd (HLA-B*58:01 [2]; [11]): 3.34 nM | Kd (HLA-B*57:01 [3]; [11]): 22.6 nM | Kd (HLA-B*35:01): 33.1 nM | Kd (HLA-B*53:01; [11]): 9.79 nM

MIKNLTQLF
Kd (HLA-B*15:01; source organism: Vaccinia virus Copenhagen): 5.71 nM

MLAVWNRVW
Kd (HLA-B*58:01 [2]; [11]): 113 nM | Kd (HLA-B*57:01 [3]; [11]): 20.6 nM

MTTTANWLW
Kd (HLA-B*58:01 [2]; [12]): 1.05 nM | Kd (HLA-B*57:01 [3]; [12]): 1.62 nM | Kd (HLA-B*53:01; [12]): 2.5 nM

NIREIEEHM
Kd (HLA-B*15:01; [10]): 234 nM

PATLFVWYFW
Kd (HLA-B*58:01 [2]; [9]): 9290 nM | Kd (HLA-B*57:01 [3]; [9]): 169 nM | Kd (HLA-A*32:01; [9]): 15500 nM

PVVLTGGTG
IC50 (HLA-A*24:02 [1]; source organism: Variola virus): 69800 nM | IC50 (HLA-A*02:01; source organism: Variola virus): ≥ 167000 nM

QSSSMRKTDW
Kd (HLA-B*58:01 [2]; [13]): 75.8 nM | Kd (HLA-B*57:01 [3]; [13]): 151 nM

RAMDTYHRW
Kd (HLA-B*58:01 [4]; [18]): 10.5 nM | Kd (HLA-B*57:01 [5]; [18]): 48.8 nM | Kd (HLA-B*15:17; [18]): 2.1 nM

RSLIGNEEF
Kd (HLA-B*58:01 [2]; [13]): 15.4 nM | Kd (HLA-A*32:01; [13]): 4650 nM

RTSWALCEAL
Kd (HLA-B*57:01 [3]; [13]): 1710 nM

RVIGYILFF
Kd (HLA-B*58:01 [4]; [19]): 2040 nM | Kd (HLA-B*15:17; [19]): 129 nM

RVIQLSRKTF
Kd (HLA-A*23:01): 3290 nM | Kd (HLA-B*15:01; [9]): 45.2 nM

RVMVMVGATM
Kd (HLA-B*15:01; [11]): 2.14 nM | Kd (HLA-B*07:02): 61.5 nM

SASSMVNGVV
Kd (HLA-B*58:01 [2]; [11]): 2040 nM | Kd (HLA-B*57:01 [3]; [11]): 227 nM | Kd (HLA-A*68:02): 10.2 nM

SINNIDPHF
Kd (HLA-B*15:01; [10]): 12 nM

TLAAMPEEE
IC50 (HLA-A*24:02 [1]; [8]): 10000 nM

TQVGTLALSL
Kd (HLA-B*15:01; [12]): 57.2 nM

VGVNTQETI
IC50 (HLA-A*24:02 [1]; [7]): 7560 nM

VSSVNTTSKM
Kd (HLA-B*58:01 [2]; [12]): 1450 nM | Kd (HLA-B*57:01 [3]; [12]): 12100 nM

YGVKNLFDW
Kd (HLA-B*58:01 [4]; [19]): ≥ 5000 nM | Kd (HLA-B*57:01 [5]; [19]): 38.3 nM | Kd (HLA-B*15:17; [19]): 155 nM

YSLGQGPVW
Kd (HLA-B*58:01 [4]; [20]): 2.6 nM | Kd (HLA-B*15:17; [20]): ≤ 1 nM
